From patent US8389575B2, “Control of enzymatic peracid generation” (E.I. du Pont de Nemours and Company, priority 2008, dated 2013)

Assays:
[1] = Dependence of specific activity on pH for hydrolysis of triacetin by CE-7 esterases/perhydrolases (cell extracts of E. coli KLP18 transformants); assay type: biochemical; settings: 200 mM triacetin, 25° C.
Procedure: A cell extract of an E. coli transformant expressing perhydrolase from Thermotoga neapolitana (KLP18/pSW196), Thermotoga maritima MSB8 (KLP18/pSW207), Bacillus pumilus PS213 (KLP1S/pSW195), Bacillus subtilis BE1010 (KLP18/pSW189), Bacillus subtilis ATCC® 31954™ (KLP18/pSW194), or Bacillus licheniformis ATCC® 14580™ (KLP18/pSW191) was prepared by passing a suspension of cell paste (20 wt % wet cell weight) in 0.05 M potassium phosphate buffer (pH 7.0) containing dithiothreitol (1 mM) twice through a French press having a working pressure of 16,000 psi (˜110 MPa). The crude extract was then centrifuged at 20,000×g to remove cellular debris, producing a clarified cell extract that was assayed for total soluble protein (Bicinchoninic Acid Kit for Protein Determination, Sigma Aldrich catalog #BCA1-KT). A portion of the clarified Thermotoga maritima MSB8 or Thermotoga neapolitana perhydrolase-containing extract was additionally heated for 20 min at 75° C., followed immediately by cooling in an ice/water bath to 5° C. The resulting mixture was centrifuged to remove precipitated protein, and the supernatant collected and assayed for total soluble protein as before.
Reactions (10 mL total volume) containing triacetin (200 mM) and cell extract supernatant (prepared as described above) were run at 25° C. and at a pH between 4.5 and 10.0, using the buffers and buffer concentrations listed in Table 5. The concentration of extract total protein (with or without heat-treatment to denature and precipitate E. coli-derived protein) was chosen to produce an ca. 50 mM decrease in triacetin concentration over 30 min (typically from 0.025 mg/mL to 0.40 mg/mL of total extract protein, dependent on the perhydrolase). A control reaction for each reaction condition was run to determine the concentration of triacetin hydrolyzed in the absence of added extract protein. Samples (100 μL) were removed at predetermined times and immediately added to 297 μL of dd H2O and 3 μL of 6N HCL. The resulting solution was mixed, then filtered using a 30,000 NMWL filter (Millipore) using a microcentrifuge for 2 min at 12,000 rpm. An aliquot of the filtrate (100 μL) was added to 150 μL of 0.417 mM N,N-diethyl meta-toluamide (external standard) in acetonitrile, and the resulting solution analyzed for triacetin by HPLC using a Supelco Discovery C8 column (25 cm×4.0 mm, 5 um; Supelco #59353-U40) and an isocratic mobile phase of 40% acetonitrile/60% distilled water at a flow rate of 1 mL/min. Triacetin was measured by UV detection at 225 nm.

[2] = Peracetic acid production by perhydrolases, control by initial reaction pH in sodium citrate buffer; assay type: biochemical; settings: triacetin 100 mM, 0.050 mg/mL extract total protein, 25° C.
Procedure: A cell extract of a transformant expressing perhydrolase from Bacillus pumilus PS213 (KLP18/pSW195), Thermotoga maritima MSB8 (KLP18/pSW207), Thermotoga neapolitana (KLP18/pSW196), or Bacillus subtilis ATCC® 31954™ (KLP18/pSW194) was prepared by passing a suspension of cell paste (20 wt % wet cell weight) in 0.05 M potassium phosphate buffer (pH 7.0) containing dithiothreitol (1 mM) twice through a French press having a working pressure of 16,000 psi (˜110 MPa). The crude extract was then centrifuged at 20,000×g to remove cellular debris, producing a clarified cell extract that was assayed for total soluble protein (Bicinchoninic Acid Kit for Protein Determination, Sigma Aldrich catalog #BCA1-KT). The supernatant was frozen in dry ice and stored at −80° C.
Reactions (10 mL total volume) containing triacetin, hydrogen peroxide and centrifuged cell extract supernatant (prepared as described above) in 50 mM sodium citrate buffer (initial pH 7.2 or 6.5) were run at 25° C. A control reaction for each reaction condition was run to determine the concentration of peracetic acid produced by chemical perhydrolysis of triacetin by hydrogen peroxide in the absence of added extract protein (data not shown). Determination of the concentration of peracetic acid in the reaction mixtures was performed according to the method described by Karst et al., supra.

[3] = initial pH 6.5, sodium citrate 50 mM, H2O2 100 mM
[4] = initial pH 6.5, sodium citrate 50 mM, H2O2 250 mM
[5] = initial pH 7.2, sodium citrate 50 mM, H2O2 100 mM
[6] = initial pH 7.2, sodium citrate 50 mM, H2O2 250 mM

B1: B. pumilus PS213: acetyl xylan esterase with perhydrolase activity from Bacillus pumilus PS213 (SEQ ID NO: 10), cell extract of E. coli KLP18/pSW195 (protein, listed as Bacillus pumilis)
chain: MQLFDLSLEELKKYKPKKTARPDFSDFWKKSLEELRQVEAEPTLESYDYPVKGVKVYRLTYQSFGHSKIEGFYAVPDQTGPHPALVRFHGYNASYDGGIHDIVNWALHGYATFGMLVRGQGGSEDTSVTPGGHALGWMTKGILSKDTYYYRGVYLDAVRALEVIQSFPEVDEHRIGVIGGSQGGALAIAAAALSDIPKVVVADYPYLSNFERAVDVALEQPYLEINSYFRRNSDPKVEEKAFETLSYFDLINLAGWVKQPTLMAIGLIDKITPPSTVFAAYNHLETDKDLKVYRYFGHEFIPAFQTEKLSFLQKHLLLST
- specific activity (mmol triacetin/min/mg total extract protein) ([1]; pH 5.0, sodium acetate 0.15 M): 1.8 mmol triacetin/min/mg total extract protein
- specific activity (mmol triacetin/min/mg total extract protein) ([1]; pH 5.5, sodium acetate 0.15 M): 3.5 mmol triacetin/min/mg total extract protein
- specific activity (mmol triacetin/min/mg total extract protein) ([1]; pH 6.0, sodium citrate 0.15 M): 4.2 mmol triacetin/min/mg total extract protein
- specific activity (mmol triacetin/min/mg total extract protein) ([1]; pH 6.5, sodium citrate 0.15 M): 11.6 mmol triacetin/min/mg total extract protein
- specific activity (mmol triacetin/min/mg total extract protein) ([1]; pH 7.0, potassium phosphate 0.15 M): 30.5 mmol triacetin/min/mg total extract protein
- specific activity (mmol triacetin/min/mg total extract protein) ([1]; pH 7.5, potassium phosphate 0.15 M): 33.7 mmol triacetin/min/mg total extract protein
- specific activity (mmol triacetin/min/mg total extract protein) ([1]; pH 8.0, potassium phosphate 0.20 M): 53.9 mmol triacetin/min/mg total extract protein
- specific activity (mmol triacetin/min/mg total extract protein) ([1]; pH 8.5, Tris(hydroxymethyl)aminomethane 0.20 M): 72.4 mmol triacetin/min/mg total extract protein
- specific activity (mmol triacetin/min/mg total extract protein) ([1]; pH 9.0, Tris(hydroxymethyl)aminomethane 0.20 M): 80.4 mmol triacetin/min/mg total extract protein
- specific activity (mmol triacetin/min/mg total extract protein) ([1]; pH 9.5, glycine 0.20 M): 71.1 mmol triacetin/min/mg total extract protein
- PAA, 1 min (ppm) [2, 3]: 170 ppm
- PAA, 5 min (ppm) [2, 3]: 310 ppm
- PAA, 30 min (ppm) [2, 3]: 830 ppm
- PAA, 1 min (ppm) [2, 4]: 281 ppm
- PAA, 5 min (ppm) [2, 4]: 652 ppm
- PAA, 30 min (ppm) [2, 4]: 1984 ppm
- PAA, 1 min (ppm) [2, 5]: 160 ppm
- PAA, 5 min (ppm) [2, 5]: 322 ppm
- PAA, 30 min (ppm) [2, 5]: 1010 ppm
- PAA, 1 min (ppm) [2, 6]: 465 ppm
- PAA, 5 min (ppm) [2, 6]: 1170 ppm
- PAA, 30 min (ppm) [2, 6]: 2525 ppm
